Publication PMC5454376, “Molecular mechanism of Gαi activation by non-GPCR proteins with a Gα-Binding and Activating motif” (Nature Communications, 2017)

Legend:
Gαi3-[ ] = assay: Pull-down, nucleotide-free Gαi3; type: binding, rat; conditions: GST fusion on glutathione-agarose (GIV 1,671–1,755; Ric-8A 12–491), 4 °C, pH 8.1, immunoblot
Procedure: (§1) Preparation of nucleotide-free Gαi3 and pull-down assay
(§2) His-tagged rat Gαi3 cloned in a pET28b vector was purified from BL21(DE3) bacteria (Life Technologies) after isopropyl-[beta]-D-thiogalactoside (IPTG) induction. Nucleotide-free Gαi3 was prepared by promoting nucleotide release with high concentrations of ammonium sulfate in the presence of glycerol. For this, His-Gαi3 was run through a Superdex S75 column equilibrated with 20 mM Tris-HCl (pH 7.4), 20 mM NaCl, 1 mM MgCl2, 1 mM dithiothreitol (DTT), 10 μM GDP and 5% (v/v) glycerol. A volume of 200 μl of His-Gαi3 at ∼5 μM were loaded on a Sephadex G-25 column (10 ml) equilibrated with 1 M ammonium sulfate, 20% (v:v) glycerol (pH 6) and the protein eluted at room temperature with the same buffer. Protein-containing fractions were pooled (∼400–600 μl) and incubated overnight at 4 °C. […] After transfer to polyvinylidene difluoride (PVDF) membranes, GST-fused proteins were visualized by Ponceau S staining and His-Gαi3 detected by immunoblotting with mouse anti-polyHis-Tag primary antibodies (1:2,500, Sigma, H1029) and goat anti-mouse IRDye 800F(ab′)2 secondary antibodies (1:10,000, Li-Cor) using an Odyssey Infrared Imaging System (Li-Cor Biosciences). […]

Gαi3-[GDP] = assay: Pull-down, GDP-loaded Gαi3; type: binding, rat; conditions: GST fusion on glutathione-agarose, 100 μM GDP, 4 °C, pH 8.1, immunoblot
Procedure: as §1, §2

Gαi3-[GTP] = assay: Pull-down, GDP/AlF4^−-loaded Gαi3; type: binding, rat; conditions: GST fusion on glutathione-agarose, 4 °C, pH 8.1, immunoblot
Procedure: as §1, §2

Gαi3 N269D = assay: Co-immunoprecipitation in HEK293T cells, Gαi3 N269D versus WT; type: binding; conditions: HEK293T lysates, FLAG-tagged Gαi3 N269D vs WT; GST-Ric-8A 1 μg added
Procedure: HEK293T cells (American Type Culture Collection) were grown at 37 °C in DMEM supplemented with 10% FBS, 100 U ml^−1 penicillin, 100 μg ml^−1 streptomycin, 1% L-glutamine and 5% CO2. DNA plasmids encoding for C-terminally 3xFLAG-tagged Gαi3 (ref. [25]) or an empty plasmid (p3xFLAG-CMV-14) were transfected using the calcium phosphate method in 10 cm dishes. The DNA amount for the Gαi3 N269D plasmid was threefold (12 μg) of that for Gαi3 WT (4 μg) to equalize their expression levels. Cells were collected 48 h after transfection by gently scrapping in PBS, centrifuged and resuspended in 1 ml of lysis buffer (20 mM HEPES (pH 7.2), 5 mM Mg(CH3COO)2, 125 mM K(CH3COO), 0.4% (v:v) Triton X-100, 1 mM DTT, 10 mM β-glycerophosphate and 0.5 mM Na3VO4 supplemented with a protease inhibitor cocktail (Sigma; catalogue #S8830)) and cleared (14,000g for 10 min) before use. Lysates were supplemented with 1 μg of purified GST-Ric-8A (12–491)[22] and 2 μg of mouse anti-FLAG antibody (Sigma F1804), and incubated for 4 h at 4 °C with rotation. BSA-blocked Protein G agarose beads (Thermo-Scientific) were added and tubes incubated for additional 90 min at 4 °C. Beads were washed four times (4.3 mM Na2HPO4, 1.4 mM KH2PO4, pH 7.4, 137 mM NaCl, 2.7 mM KCl, 0.1% (v/v) Tween 20, 10 mm MgCl2, 5 mm EDTA and 1 mm DTT) and immunoprecipitated proteins eluted by boiling in Laemmli sample buffer. […]

Gα = conditions: cited from earlier work
Source text: GBA proteins also differ from the non-receptor GEF Ric-8A. Although both Ric-8A and GBA proteins activate monomeric Gα instead of Gαβγ trimers, removal of the C terminus of Gα only abrogates Ric-8A action. This indicates a different mode of G-protein binding for Ric-8A that resembles how GPCR bind. […] We are confident about the similarity on which the model was built because of several lines of evidence presented in this manuscript and in previously published work. […] Second, sequence similarity with the KB-752 and rudimentary modeling allowed us to identify residues in the GBA motif of GIV ...

B1: Ric-8A: non-receptor GEF used as control (protein)
chain: TGEEDAVTEALRSFNREHSQSFTFDDAQQEDRKRLAKLLVSVLEQGLSPKHRVTWLQTIRILSRDRSCLDSFASRQSLHALACYADIAISEEPIPQPPDMDVLLESLKCLCNLVLSSPTAQMLAAEARLVVRLAERVGLYRKRSYPHEVQFFDLRLLFLLTALRTDVRQQLFQELHGVRLLTDALELTLGVAPKENPLVILPAQETERAMEILKVLFNITYDSVKREVDEEDAALYRYLGTLLRHCVMADAAGDRTEEFHGHTVNLLGNLPLKCLDVLLALELHEGSLEFMGVNMDVINALLAFLEKRLHQTHRLKECVAPVLSVLTECARMHRPARKFLKAQVLPPLRDVRTRPEVGDLLRNKLVRLMTHLDTDVKRVAAEFLFVLCSESVPRFIKYTGYGNAAGLLAARGLMAGGRPEGQYSEDEDTDTEEYREAKASINPVTGRVEEKPPNPMEGMTEEQKEHEAMKLVNMFDKLSR
modifications: left off: GST, end not stated, kept
notes: non-receptor GEF used as control
binding to Gαi3-[ ] (Gαi3-[ ]): binds preferentially | binding to Gαi3-[GDP] (Gαi3-[GDP]): weaker binding | binding to Gαi3-[GTP] (Gαi3-[GTP]): dissociation | co-immunoprecipitation with nucleotide-free-mimicking mutant compared with WT (Gαi3 N269D): binds more | effect of removal of the C terminus of Gα (Gα): abrogates
